System: T1, RsmE-His6 (Pseudomonas putida KT2440), ORF:50140dbc
T1 sequence: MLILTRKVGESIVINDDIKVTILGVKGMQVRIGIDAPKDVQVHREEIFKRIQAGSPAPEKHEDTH
Assay: EMSA
Details: 1x binding buffer (composition only cited), RNA 5 or 10 nM, 30 min at 30 C, with or without 100-fold unlabeled competitor RNA; 6% non-denaturing PAGE in TBE at …

Sequence: GGGUUCUAAGAUUGGAUCCACUGUUAAUCUUUACCACAUGGACGUUGCGCAGGAAGCGCAAAGGACAGAUCAAGGACGACGACGAAGGACCACCUGCCAGGAUGGCGGGGCGAUACGGAUGUCACAGGGAAACAGUCUGGAAAACCCCGCUUCGGCGGGGGGGGGUUUUUUUUGCGGCCGCUUUU [rsmY full-length RNA]
- binding: binds
